Assay in all cases: not stated; tetrameric assembly of the BRIL-KcsA linker constructs; how it was judged is not told
Assay [1] addresses BRIL-2turn-KcsA (construct 7) (UniProt P0A334).
Assay [2] concerns the target BRIL-AAA-KcsA (construct 2) (UniProt P0A334).
For assay [3], the target named is BRIL-AAAA-KcsA (construct 3, 1 turn) (UniProt P0A334).
The target of assay [4] is BRIL-AAAAA-KcsA (construct 4) (UniProt P0A334).
Assay [5] concerns the target BRIL-AARAAA-KcsA (construct 5) (UniProt P0A334).
Assay [6] addresses BRIL-AARAAAA-KcsA (construct 6) (UniProt P0A334).

Among the data in paper PMC7101349 are stoichiometry N values, retold here.

For the substance “BRIL-2turn-KcsA (construct 7) (from UniProt P0A334 24-160)”, the stoichiometry N (as a rule, a count of units in the complex or per binding partner) in assay [1] worked out at 4. “BRIL-AAA-KcsA (construct 2) (from UniProt P0A334 24-160)”: in assay [2], the stoichiometry N stood at 4.

The substance “BRIL-AAAA-KcsA (construct 3, 1 turn) (from UniProt P0A334 24-160)” yielded a stoichiometry N in assay [3] of 4. In the case of “BRIL-AAAAA-KcsA (construct 4) (from UniProt P0A334 24-160)”, the stoichiometry N in assay [4] was found to be 4. The substance “BRIL-AARAAA-KcsA (construct 5) (from UniProt P0A334 24-160)” returned a stoichiometry N in assay [5] of 4. In the case of “BRIL-AARAAAA-KcsA (construct 6) (from UniProt P0A334 24-160)”, the stoichiometry N in assay [6] is 4.
